Test: soluble on expression in E. coli; label from the status in PepcDB or PDB records

Which “soluble on expression in E. coli” value does the source give for “MSLTEWLTIFDSERNTLGKKLRDEVHRDGNWHETFHCWFVEKDAEDMFLYFQLRSKNKKEAPLIWDITSAGHIMHDEDVQIGGLREIEEELGLSFQTTDLAYKGIFTIDYEISNLTDREFCHMYFHNVINPLPFAPGEEVDDVMKIHATSFLQLLKREISSFTATSVLSNKSITITFSDIYPYDFAYYEFVVEQGKELLKNNDEGHHHHHH” here?
The value was “soluble”.

Which “soluble on expression in E. coli” value does the source give for “MSLTFIRKVETWITNSKQTEDGWSQIKPFIFLKLTNSDGFEGWGEAFSLPAREKGIVEIIHNLMSSLSYVKDITPDRFYTESNLIADGHRGIDFSAATSAIEMSLWDIEGKKEKKPLYKILSKDYREKVPVYATIWSEDFKNDENLSSRCIEILSDGYGGIKIYPLQNRTVEQAAKCVSKIRDVLGYKIPLMLDLACPKDTNISLKLASLVEEFRPYWFEEPVDGEATRALKDIREKTSLRIVSGEKQCGLNHFIETLALDAVDIFNPDISGVGGIIDMIKIIKLSHEKKVTVSPHCWNSMSIAASAMVHVCMSFTNTEMAEFFPEYIPYSLKFSNQNYEIKDGFVKIEDNEGLGINIDTKLLMEDTSSYRETELTEGHHHHHH” here?
The value was “soluble”.

With “MSLTGETLFGTIELVGYRDNYGQIKIPRRPLNPGEKVYGVDYEFLSKFYKFDENTSINIGNLIGYDKGSNIVPVYLDVNKLVTEHLAVLAMTGSGKSYTVGRIIERLVAEMNGTVVVFDVHGEYGKAFEKGEIHFNNNLDFIEDEREKKSIQRIQENLIKMQNAGGGIKVYTPQIDSFDYKYSGKNHHLALQFDRFDMDDLSSILPGLTEAQERVLDVAIRYWKAKYNHPPRDIQDLTYLLSDEQGLEELKNWDNLTEGEAKALNNRSAAVASMKLTRVINEAKSFYTRAIGEPTDIYDMIGEKGNSVGRLVIIDLQGLSDDAKQIITALISSEIMRAASDKKRQIRPCFLVYEEGHNFAPAGIPSISKKIIKKIAAEGRKFGVGFAIISQRPSKLDPDVTSQCNTIITMRLKNPDDQRFIAKTSDMFSSSDIEELPSLSTGEALINGRSIPAPLLVKVGTKALIHGGESPEVIKEWGVFNGEGHHHHHH” as the sequence, how does the “soluble on expression in E. coli” value read?
Its value is “not soluble”.

Which “soluble on expression in E. coli” value does the source give for “MSLTGNAQAATIADPSTLVVDTVGPVLTIGLNRPKKRNALNDGLMAALKDCLTDIPDQIRAVVIHGIGDHFSAGLDLSELRERDATEGLVHSQTWHRVFDKIQYCRVPVIAALKGAVIGGGLELACAAHIRVAEASAYYALPEGSRGIFVGGGGSVRLPRLIGVARMADMMLTGRVYSAAEGVVHGFSQYLIENGSAYDKALELGNRVAQNAPLTNFAVLQALPMIAEANPQTGLLMESLMATVAQSDQEAKTRIRAFLDHKTAKVREGHHHHHH” here?
Its value is “soluble”.

Which “soluble on expression in E. coli” value does the source give for “MSLTHPDFTILYVDNPPASTQFYKALLGVDPVESSPTFSLFVLANGMKLGLWSRHTVEPKASVTGGGGELAFRVENDAQVDETFAGWKASGVAMLQQPAKMEFGYTFTAADPDSHRLRVYAFAGEGHHHHHH” here?
Its value is “not soluble”.

For “MSLTIDRIRALVSEDFNAVNNLIIDKIQSQVGLIQDLSQHIVESGGKRLRPLVVLLASNACGYKGKDHISLAAMVEFFHTATLLHDDVIDESTLRRGRQTANSIWGSKASVLVGDYLFTQSVNLMVEVGIKEILNLLANTSHQITCGEVKQLANRHNPALTLDDYFDVIRAKTALLFAAAACIGPILTNAPIELRNSLYNYGLHLGNAFQLIDDALDYCSDAATLGKNIGDDLADGKATLPLIHALQNGNATQQQQIRESLMKGSLSHLPDILIAIEQTEAIPFTKRIAAQEVDSALSALEILPDSVYKEALVDLAKFALERNYEGHHHHHH”, which “soluble on expression in E. coli” value is on record?
Its value is “soluble”.

For “MSLTKDDQKELGKTLWAIADQLRGSMNADDFRDYMLSFLFLRYLSDNYEAAAKKELGSDYPDAKTIGNSDKTPLSVWYASNPGDVAAFEQQMRRKAHYVIKPKYLWGNIVNLAKKQNHDLLDTLQQGFKHIEEDSFESEFQGLFSEINLASDKLGRKYDDRNAKLCSIISEIARGMALSAKTDSLGDAYEYLIGQFAAGSGKKAGEFYTPQEISNILSAIVTLDSQEPKTGPRGKLDSVFDFACGSGSLLLNIRNRMTNSGGSIGKIYGQEYNVTTYNLARMNMLLHGVKDTEFEIYHGDTLKNDWDWLRETNPAKKPRFDAVVANPPFSYRWEPGEAMAQDARFKNHGVAPKSAADFAFLLHGLQYLKDDGVMAIILPHGVLFRGGKEADIRRKLLDDGHIDTVIGLPANLFYSTGIPVCILVLKKCKKPDDVLFINAAGHFAKGKRQNQLTDEHIQRIVNTYQNRNKQDRYSRCVSMKEIADKDYNLNISRYVSTAEADKEIVLEAVHADLTAIESRLEESKKRHNAFLVELGLKPLPEGHHHHHH”, which “soluble on expression in E. coli” value is on record?
The value was “soluble”.

With “MSLTKLLLLQKIKDPDLKQIHRDFPDLELINADEMTNELVDQIEIVYGQFSHLQKGYGFSSWFGKVVPNGKSLKWVQTISAGIDFLPLDQLAKRGIMVSNMSGLHSEAISENVLAYILILNRGLKFALANQAKQSWDFNFPKIKQLQDKKILIFGTGAIGSAIAKILQAFDVEVIGVNRHGKDLKYFDRVITQEQLGDFADADYLISDMPLTTQTRGYFDSDFFSLFKKQPIFINVGRGPSVVEKDLIKALKADILSGAALDVFEHEPLASDSPLWKMENVIVTPHSSALLEHFQRDAYKIFGPNLKSYLANGEGHHHHHH” as the sequence, how does the “soluble on expression in E. coli” value read?
The value was “not soluble”.

With “MSLTKNNISFYVVDASEELTMNIKEASEKSGVSADTIRYYERIGLIPPIHRNESGVRKFGAEDLRWILFTRQMRRAGLSIEALIDYLALFREGEHTLEARAELLKKQRIELKNRIDVMQEALDRLDFKIDNYDTHLIPAQEELKDFNVERSNEGHHHHHH” as the sequence, how does the “soluble on expression in E. coli” value read?
Its value is “soluble”.

Which “soluble on expression in E. coli” value does the source give for “MSLTLKLGFKPFSFHLLRSLRTSQGIIKKKEGWLIKLENKTGRLGWGEIAPLNLSELNICGKILEKLGNSPSRQTLEEGIPNWPGSLAFAIGAALAEIDYLIGNDSKNKWLSVTSSALLLPNEESILLNTLQSVLDKHKETQKELTFKWKIRNTSSDSDLNLLKKILFLLPENTRLRIDANGGLNRIQAHEWAQALQNEARIEWLEQPLAVDDIEGMNELAQMLPIALDESLIYNPSLRKSWTGWQIRRPLIEGDPRILLKEFKEKNSYISISTSFETGIGKRWIEHFAALQLRGLTPTQPGLAPGWCPKGPLFCQNPQLVWEAAEGHHHHHH” here?
Its value is “soluble”.

For “MSLTNFSQQHLPLVEKVMVDFIAEYTENERLKEAMLYSIHAGGKRLRPLLVLTTVAAFQKEMETQDYQVAASLEMIHTYSLIHDDLPAMDDDDLRRGKPTNHKVFGEATAILAGDGLLTGAFQLLSLSQLGLSEKVLLMQQLAKAAGNQGMVSGQMGDIEGEKVSLTLEELAAVHEKKTGALIEFALIAGGVLANQTEEVIGLLTQFAHHYGLAFQIRDDLLDATSTEADLGKKVGRDEALNKSTYPALLGIAGAKDALTHQLAEGSAVLEKIKANVPNFSEEHLANLLTQLQLREGHHHHHH”, which “soluble on expression in E. coli” value is on record?
Its value is “soluble”.

For “MSLTNNSETFNVLHASDFHIQLDYKLGAEGNCTLVPCGTSSSYSKDAPGKTYNFTDYYKSFNSDVSGNDISFYPDSHYDENAKFSKGDYYDFPQYFGWSFNKAPATSFGAYLSDAPYLLVNNSIVEMKKLHQEKNFESIIFTGDSFSHNGELANPDELKFSEAAIFNLINHYLNGVQVFPALGNHDTMFRYAEVAPRIYVSNASYYWNEDYVTDLWVNNGWFDKKDADAIKTHYTGYSFTTKRGLKVIGMNSNFYYGDNLWSYGETTTKPDKFGIWKFLIDELVDSESHGQRVWIMAHIPSNNYDVLPIQSHIFAAIVKRFSPYTIANLFFGHTHRTQYSVYYSTNDTSKIEDALTVSWVNPSVTPYTNFNPGFRYYEVENESFNIRNSFSYYFDLNGTEGHHHHHH”, which “soluble on expression in E. coli” value is on record?
Its value is “soluble”.

With “MSLTPEHLPTEQYEAQLAEKVVRLQSMMAPFSDLVPEVFRSPVSHYRMRAEFRIWHDGDDLYHIIFDQQTKSRIRVDSFPAASELINQLMTAMIAGVRNNPVLRHKLFQIDYLTTLSNQAVVSLLYHKKLDDEWRQEAEALRDALRAQNLNVHLIGRATKTKIELDQDYIDERLPVAGKEMIYRQVENSFTQPNAAMNIQMLEWALDVTKGSKGDLLELYCGNGNFSLALARNFDRVLATEIAKPSVAAAQYNIAANHIDNVQIIRMAAEEFTQAMNGVREFNRLQGIDLKSYQCETIFVDPPRSGLDSETEKMVQAYPRILYISCNPETLCKNLETLSQTHKVERLALFDQFPYTHHMECGVLLTAKEGHHHHHH” as the sequence, how does the “soluble on expression in E. coli” value read?
Its value is “soluble”.

For “MSLTQETALGAALKSAVQTMSKKKQTEMIADHIYGKYDVFKRFKPLALGIDQDLIAALPQYDAALIARVLANHCRRPRYLKALARGGKRFDLNNRFKGEVTPEEQAIAQNHPFVQQALQQQSAQAAAETLSVEAEAAESSAAEEGGSHHHHHH”, which “soluble on expression in E. coli” value is on record?
Its value is “soluble”.

For “MSLTQGSVIFTQNRPGLDEKIFKIYKFKTMSDERDEKGELLSDELRLKAFGKIVRSLSLDELLQLFNVLKGDMSFVGPRPLLVEYLPLYNKEQKLRHKVRPGITGWAQVNGRNAISWQKKFELDVYYVKNISFLLDLKIMFLTALKVLKRSGVSKEGHVTTEKFNGKNEGHHHHHH”, which “soluble on expression in E. coli” value is on record?
Its value is “not soluble”.

Which “soluble on expression in E. coli” value does the source give for “MSLTQMEMARKGVVSDEMKKVAEYEGVDVEIVRQKLAEGRAVLPKNKLHRIERPMIVGEGFSVKVNANIGTSQGFSSLEEEKEKARVAIEYGADSLMVLSTWGDLREIRRAIVEMSPVPVGSVPIYDSAVRSYQMKKNVVDFSEKDFFDMVIAHAEDGIDFMTIHVGVTRRVLDRIKSSRRVLKIVSRGGAIIAGWMIKNNKENPFYEHFDELLDIAKDYDITLSLGDGMRPGAVVDASDAQQFEELFVMGELVERAREKGVQVMLEGPGHVPLNEVEMNVRLMKKIGKGAPIFLLGPLPTDRAMGYDHIACAIGGALAGYYGADFLCYVTPSEHISLPDVEDVREGVIASKIAAIVADVARGNKKAWELEKKMALARKNFDWETMFSLSLGKDVAKKKYEERPYPDKGCSMCGPFCAIKIAEEFSEGHHHHHH” here?
Its value is “soluble”.

For “MSLTQRIDFQTDPSRYRHWRVAYDGEIANLYMDVDEQGGLFPGYELKLNSYDLGVDIELADIVQRMRFEHPEVKVVVMQSGKDRVFCAGANIRMLGGASHAHKVNFCKFTNETRNTYEAAEADSGQKYIAAVKGACAGGGYELALACNYIMLTNDSSSSVALPEVPLLAVLPGTGGLTRVTDKRKVRRDLADVFCSVEEGVRGQRAVDWRLVDEIAPNSKFDEVVQERAREFASASVKPSGLTGIALTPLDRRFAEDGSVTYSTVEVVVEREAGRATLTISGPTDAAPDTVDALQAQGAEAWILRAARELDDAILHLRLNERRIGTLVIQTQGDGAAVAAHEALLLENRDHWLANEILQHWKRVLKRVDMTSRSLVAIVEHGSCFAGPLAELLWAVDRSYMMLEEFEGDNRPLAAITLSPGNFGTYPMGNDLSRLATRFLGTPEAVEAARARIGEALEAEEAEKLGLVTYVLDDIDWEDEVRVFLEERASFSPDAMTGMEANLRFAGPETMETRIFGRLTAWQNWIFQRPNAVGPDGALQRYGTGVRGDYDMERVEGHHHHHH”, which “soluble on expression in E. coli” value is on record?
The value was “soluble”.

For “MSLTQTPNTGSPHRVVIVGGGAGGLELAAKLGRAHGRERVTLVDSRPFHIWKPSLHEAAAGTLDIHQEGLSYLMLANMCNFTFAQGELQGIERERRQIQVGPVADPSGQQVLPPRELSYDTLVLAMGSTSNFFNTPGAAEHAVTLDTTENAEQFRLTMLKAMVQVDLRKVHDPSARLDLVIVGGGATGVELAVELIEASHVVSAYGLPNFRADRDLVITLVEGAPRILSALPEKISRAAHARLTELGVRVETDCRVAEVGADHVVTADGRRFEATMCLWAAGIEGPPLFRQLGLPLNRLGQLEVNERLESPDPHILALGDCCAAPWKDGRTVPARAQAAHQQADYLARKLTARLRNAAEPTEAYAYHDHGSLVSLGQGSGVGSLMGKLAGRGLFVSGTLARLMYMSLHLMHHRAVLGISRTATLALARLLMRRTRPRVKLHEGHHHHHH”, which “soluble on expression in E. coli” value is on record?
The value was “soluble”.

For “MSLTQVPAGQFTATKNLRPAAKPGKDVVLRVYSDFQCPYCQKLELETMPALLRALPDDVRVEFHQFPLEQIHPLARPAAEASECAAQQGRFWDYKDALFRDRSWLQNNPNETFLRLAGDLKLDPGKFKDCLALRGGKAGVDAGLAEAQQLGLNATPTVFVDGYRVGNPFDTAAVLQLIDVARATREGHHHHHH”, which “soluble on expression in E. coli” value is on record?
The value was “soluble”.

— the DeepSol protein solubility set
